The nature of this data set: self-splicing fitness, log relative to wild type (ln ratio); higher = more splicing; Tetrahymena group I intron in knt gene, E. coli kanamycin selection, DiMSum; sequences stand for … in CUCUCU…GGAGGGAAAAGUUAUCAGGCAUGCACCUGGUAGCUAGUCUUUAAACCAAUAGAUUGCAUCGGUUUAAAAGGCAAGACCGUCAAAUUGCGGGAAAGGGGUCAACAGCCGUUCAGUACCAAGUCUCAGGGGAAACUUUGAGAUGGCCUUGCAAAGGGUAUGGUAAUAAGCUGACGGACAUGGUCCUAACCACGCAGCCAAGUCCUAAGUCAACAGAUCUUCUGUUGAUAUGGAUGCAGUUCACAGACUAAAUGUCGGUCGGGGAAGAUGUAUUCUUCUCAUAAGAUAUAGUCGGACCUCUCCUUAAUGGGAGCUAGCGGAUGAAGUGAUGCAACACUGGAGCCGCUGGGAACUAAUUUGUAUGCGAAAGUAUAUUGAUUAGUUUUGGAGUACUCGUGGUCG
A digest of the protocol:
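Library with all eight P1ex-region intron nucleotides randomised, intron inside the knt kanamycin-resistance gene on pET-22b(+), in E. coli BL21(DE3). Cells grew overnight at 37°C or 30°C on LB agar with or without 25 μg/mL kanamycin (plus 100 μg/mL carbenicillin, 50 μM IPTG, 0.2% rhamnose), in six replicate transformations. Pooled colonies were amplicon-sequenced on Illumina HiSeq 2500. DiMSum fitness is the error-weighted combination of wild-type-normalised replicate fold changes, kanamycin versus none.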

± gives the uncertainty stated by the source.

UCUGAGCAAUAUUACGGCUA: the “self-splicing fitness (ln)” value (30 °C) is -3.33 ± 0.42 and the “self-splicing fitness (ln)” value (37 °C) is -2.58 ± 0.29.
On the same counts, the results for AGAGAGCAAUAUUACGCAAA are -2.1 ± 0.32 and -2.69 ± 0.48.
In the same order, the values of CGUAAGCAAUAUUACGGAAA are -3.62 ± 0.47 and -2.39 ± 0.39.
In the same order, the values of GGACAGCAAUAUUACGAGCC are -1.49 ± 0.15 and -2.56 ± 0.25.
Consider UGUCAGCAAUAUUACGGGGA, for which the “self-splicing fitness (ln)” value is -1.32 ± 0.061 (30 °C) and -0.476 ± 0.07 (37 °C).
Take CUGCAGCAAUAUUACGAAUA: the “self-splicing fitness (ln)” value (30 °C) was -1.74 ± 0.45 and the “self-splicing fitness (ln)” value (37 °C) was -1.3 ± 0.2.
In the same order, the values of GAGCAGCAAUAUUACGUUUC are -3.37 ± 0.14 and -2.2 ± 0.22.
On the same counts, the results for UCUAAGCAAUAUUACGUUGG are -1.6 ± 0.064 and -1.37 ± 0.086.
In the same order, the values of AAUCAGCAAUAUUACGUGAA are -0.152 ± 0.065 and 0.257 ± 0.094.
On to CCAUAGCAAUAUUACGUGAU, for which the “self-splicing fitness (ln)” value is -2.78 ± 0.097 (30 °C) and -2.76 ± 0.16 (37 °C).
On the same counts, the results for CGACAGCAAUAUUACGGGAG are -3.21 ± 0.15 and -1.97 ± 0.13.
In the same order, the values of GACGAGCAAUAUUACGACCU are -2.01 ± 0.15 and 0.0378 ± 0.16.
In the same order, the values of ACUGAGCAAUAUUACGGUGU are -3.14 ± 0.13 and -1.41 ± 0.1.
Take AAAAAGCAAUAUUACGUUGC: the “self-splicing fitness (ln)” value was -3.56 ± 0.13 (30 °C) and -2.44 ± 0.14 (37 °C).
On the same counts, the results for GGACAGCAAUAUUACGUGGG are -2.49 ± 0.12 and -2.28 ± 0.12.
On to AGCAAGCAAUAUUACGAUAC, for which, under “37 °C”, the “self-splicing fitness (ln)” value was -1.72 ± 0.46.
Turning to GAAAAGCAAUAUUACGUAUU, the “self-splicing fitness (ln)” value is -3.24 ± 0.13 (30 °C) and -2.16 ± 0.11 (37 °C).
For GUCUAGCAAUAUUACGGGAA, the “self-splicing fitness (ln)” value (30 °C) was -1.24 ± 0.086 and the “self-splicing fitness (ln)” value (37 °C) was -0.758 ± 0.084.
On the same counts, the results for CAAUAGCAAUAUUACGGAAC are -3.98 ± 0.33 and -3.27 ± 0.47.
In the same order, the values of GCAUAGCAAUAUUACGGUGG are -2.55 ± 0.15 and -1.31 ± 0.13.
In the same order, the values of CAAAAGCAAUAUUACGACUA are -1.52 ± 0.13 and -0.952 ± 0.12.
In the case of UGAGAGCAAUAUUACGUUCC, under “37 °C”, the “self-splicing fitness (ln)” value was -2.11 ± 0.47.
In the case of UAGAAGCAAUAUUACGAGUG, the “self-splicing fitness (ln)” value is -0.527 ± 0.048 (30 °C) and -0.505 ± 0.071 (37 °C).
On the same counts, the results for CAAAAGCAAUAUUACGAAUU are -3.52 ± 0.18 and -2.27 ± 0.22.
On the same counts, the results for CGCAAGCAAUAUUACGAGGC are -2.71 ± 0.2 and -2.84 ± 0.29.
In the same order, the values of CCCAAGCAAUAUUACGGAGU are -3.37 ± 0.11 and -2.47 ± 0.11.
On to GGGAAGCAAUAUUACGGAUA, for which, where the note is “37 °C”, the “self-splicing fitness (ln)” value was -1.38 ± 0.42.
On to ACACAGCAAUAUUACGCAAA, for which the “self-splicing fitness (ln)” value reads like this: (30 °C) -3.2 ± 0.11; (37 °C) -1.85 ± 0.092.
In the same order, the values of CAUAAGCAAUAUUACGUUUA are -2.97 ± 0.23 and -2.42 ± 0.28.
On the same counts, the results for AUCGAGCAAUAUUACGGGGU are -3.4 ± 0.21 and -2.52 ± 0.19.
On the same counts, the results for GAAUAGCAAUAUUACGCGAG are -1.19 ± 0.087 and -0.803 ± 0.096.
Regarding GGUAAGCAAUAUUACGAUGG, the “self-splicing fitness (ln)” value by setting is: (30 °C) -3.83 ± 0.39; (37 °C) -2.64 ± 0.33.
On the same counts, the results for UUUCAGCAAUAUUACGCAUG are -0.765 ± 0.093 and -0.0959 ± 0.11.
For AACUAGCAAUAUUACGCCUU, the “self-splicing fitness (ln)” value by setting is: (30 °C) -0.414 ± 0.073; (37 °C) 0.376 ± 0.1.
Regarding ACGGAGCAAUAUUACGAUGC, the “self-splicing fitness (ln)” value runs as follows: (30 °C) -3.69 ± 0.43; (37 °C) -1.74 ± 0.29.
In the same order, the values of UCCCAGCAAUAUUACGAUUC are -4.67 ± 0.32 and -1.97 ± 0.14.
In the same order, the values of GUCUAGCAAUAUUACGCUGA are -1.21 ± 0.16 and -0.707 ± 0.13.
UAUGAGCAAUAUUACGUCGG: the “self-splicing fitness (ln)” value runs as follows: (30 °C) -2.86 ± 0.23; (37 °C) -2.18 ± 0.2.
In the same order, the values of ACCUAGCAAUAUUACGUAAU are -1.28 ± 0.049 and -0.573 ± 0.066.
On the same counts, the results for AGGAAGCAAUAUUACGGAUU are -2.3 ± 0.12 and -1.55 ± 0.14.
On the same counts, the results for CGUCAGCAAUAUUACGGUUA are -2.25 ± 0.12 and -0.874 ± 0.091.
Take CAAUAGCAAUAUUACGAGGG: the “self-splicing fitness (ln)” value by setting is: (30 °C) -3.54 ± 0.16; (37 °C) -0.649 ± 0.13.
On the same counts, the results for UGAAAGCAAUAUUACGGAGA are -3.09 ± 0.2 and -2.54 ± 0.23.
In the same order, the values of ACUCAGCAAUAUUACGUCAC are -3.57 ± 0.15 and -1.97 ± 0.15.
In the same order, the values of GAUUAGCAAUAUUACGCAAC are -3.22 ± 0.26 and -1.89 ± 0.19.
For GGGUAGCAAUAUUACGAUCU, the “self-splicing fitness (ln)” value runs as follows: (30 °C) -1.64 ± 0.092; (37 °C) -0.576 ± 0.11.
On the same counts, the results for UACUAGCAAUAUUACGGAGA are -2.59 ± 0.17 and -1.84 ± 0.16.
On the same counts, the results for AACUAGCAAUAUUACGCGCU are -1.79 ± 0.12 and -0.454 ± 0.12.
In the same order, the values of GCCAAGCAAUAUUACGUUUC are -2.86 ± 0.18 and -0.805 ± 0.12.
Consider GUCUAGCAAUAUUACGUCUU, for which the “self-splicing fitness (ln)” value is, setting by setting: (30 °C) -0.274 ± 0.09; (37 °C) 1.25 ± 0.099.
In the same order, the values of CCUCAGCAAUAUUACGCAUC are -2.68 ± 0.18 and -2.85 ± 0.41.
For UUGCAGCAAUAUUACGAUAU, the “self-splicing fitness (ln)” value (30 °C) is -4.06 ± 0.32 and the “self-splicing fitness (ln)” value (37 °C) is -1.78 ± 0.24.
On the same counts, the results for UUAGAGCAAUAUUACGCGGA are -1.29 ± 0.1 and -0.00507 ± 0.11.
In the same order, the values of CCGAAGCAAUAUUACGGUCU are -2.93 ± 0.17 and -3.23 ± 0.25.
For UUGAAGCAAUAUUACGUAGA, the “self-splicing fitness (ln)” value (30 °C) is -1.28 ± 0.12 and the “self-splicing fitness (ln)” value (37 °C) is -0.894 ± 0.15.
In the same order, the values of GUAAAGCAAUAUUACGGAAC are -1.56 ± 0.12 and -1.57 ± 0.21.
On the same counts, the results for UAGCAGCAAUAUUACGCGGA are -0.908 ± 0.079 and -0.843 ± 0.082.
Take AUCGAGCAAUAUUACGGCUC: the “self-splicing fitness (ln)” value was -1.39 ± 0.36 (30 °C) and -1.56 ± 0.49 (37 °C).
For the sequence AUGGAGCAAUAUUACGGAAG, the “self-splicing fitness (ln)” value (30 °C) is -3.24 ± 0.38.
Take UCGUAGCAAUAUUACGAGUA: the “self-splicing fitness (ln)” value is -2.71 ± 0.18 (30 °C) and -1.21 ± 0.13 (37 °C).
On the same counts, the results for UUGCAGCAAUAUUACGAUCC are -3.64 ± 0.47 and -1.68 ± 0.35.
In the same order, the values of CGGUAGCAAUAUUACGGAGC are -3.01 ± 0.33 and -2.91 ± 0.34.
Regarding CCUUAGCAAUAUUACGGGGG, the “self-splicing fitness (ln)” value (30 °C) is -3.17 ± 0.23 and the “self-splicing fitness (ln)” value (37 °C) is -1.39 ± 0.23.
In the same order, the values of AAUUAGCAAUAUUACGCAAG are -0.991 ± 0.13 and -1.4 ± 0.19.
Turning to CGCUAGCAAUAUUACGUCCU, the “self-splicing fitness (ln)” value is, setting by setting: (30 °C) -1.59 ± 0.15; (37 °C) -1.45 ± 0.17.
On the same counts, the results for AUAUAGCAAUAUUACGGUAG are -3.13 ± 0.18 and -1.74 ± 0.21.
In the case of GCGCAGCAAUAUUACGCGGG, the “self-splicing fitness (ln)” value is -2.93 ± 0.1 (30 °C) and -1.37 ± 0.097 (37 °C).
Take GAUUAGCAAUAUUACGGCAA: the “self-splicing fitness (ln)” value is, setting by setting: (30 °C) -0.324 ± 0.15; (37 °C) -0.0501 ± 0.18.
In the same order, the values of UGGCAGCAAUAUUACGGUUA are -0.000429 ± 0.076 and 0.0782 ± 0.092.
In the case of UAAGAGCAAUAUUACGCAAC, the “self-splicing fitness (ln)” value (37 °C) was -2.19 ± 0.45.
On to UAUCAGCAAUAUUACGGGGC, for which the “self-splicing fitness (ln)” value is -2.85 ± 0.18 (30 °C) and -2.59 ± 0.19 (37 °C).
In the case of CGGGAGCAAUAUUACGUCUG, the “self-splicing fitness (ln)” value is -3.61 ± 0.22 (30 °C) and -2.03 ± 0.22 (37 °C).
On the same counts, the results for GUCGAGCAAUAUUACGGACU are -3.29 ± 0.47 and -1.73 ± 0.24.
In the case of CCCGAGCAAUAUUACGUGGA, the “self-splicing fitness (ln)” value was -3.08 ± 0.21 (30 °C) and -2.81 ± 0.22 (37 °C).
In the same order, the values of AUCGAGCAAUAUUACGCGUA are -1.93 ± 0.17 and -1.01 ± 0.14.
On to AGUGAGCAAUAUUACGAGAG, for which the “self-splicing fitness (ln)” value was -2.1 ± 0.26 (30 °C) and -2.36 ± 0.29 (37 °C).
AAGUAGCAAUAUUACGAGGC: where the note is “30 °C”, the “self-splicing fitness (ln)” value was -3.44 ± 0.29.
